± gives the half width of the 95% confidence interval.

Data set [1] in a line: folding stability dG unfold from trypsin proteolysis; higher = more stable. The essentials:
(§1)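 Digests were run with trypsin and chymotrypsin at 11 concentrations in threefold dilutions, plus a no-protease condition, on designed mini-proteins in a PA-tagged cDNA display construct. The mini-proteins were under 80 residues, had no cysteine, and were kept only when AlphaFold2 dimer inter-PAE was above 15. After sequencing, Bayesian fitting of the counts gave K50, from which unfolding free energy was derived against a sequence-predicted unfolded-state K50 and a shared folded-state K50, per protease or combined.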

Data set [2] can be described thus: folding stability dG unfold from chymotrypsin proteolysis; higher = more stable. In short, it runs like this:
as §1

Data set [3] in a line: folding stability dG unfold (combined trypsin and chymotrypsin); higher = more stable. The essentials: as §1

As for “SAGGSAGGLPPGQSIEIFIFSMFPTPNGNLNLEMIQITIRIRPVVRKPDNGGEKYVPPDDPDLASAGGSAGG [r6_405_TrROS]”, the results for the “folding stability dG unfold” value in data set [1], in data set [2] and in data set [3] were 2.87 ± 0.11 kcal/mol, 4.36 ± 0.22 kcal/mol and 3.97 ± 0.16 kcal/mol, respectively.

With “SAGGSAGGLRVVKPEKVVEAIRKIRELVPKNYLVIVDSIEVREEGGKLYVDIPVLVLPVPPELLSAGGSAGG [r6_819_TrMRF]”, the “folding stability dG unfold” value in data set [1] worked out at 1.54 ± 0.027 kcal/mol; in data set [2], 1.79 ± 0.072 kcal/mol; in data set [3], 1.65 ± 0.16 kcal/mol.

“SAGGSAGGMEVVELTVDELRALLPPGAVLLVYNRKTRKLYEIPVEELEALLKPGDKVRVVVLPPSAGGSAGG [r6_893_TrROS_Hall]”: the entries for the “folding stability dG unfold” value in data set [1], in data set [2] and in data set [3] were 3.62 ± 0.17 kcal/mol, 4.39 ± 0.074 kcal/mol and 4.17 ± 0.25 kcal/mol, respectively.

With “SAGGSAGGMFIALVTITLPNGEKITDLAFFESPEKIYVLNLKDGKWSEPKVEDIKVVPLEELLFSAGGSAGG [r6_558_TrMRF]”, the figures for the “folding stability dG unfold” value in data set [1], in data set [2] and in data set [3] were 1.92 ± 0.12 kcal/mol, 2.73 ± 0.069 kcal/mol and 2.41 ± 0.18 kcal/mol, respectively.

For the sequence “SAGGSAGGMIIRITTKNGKTLEIKAKSLEEAKAAIAEKLGLSKENIKPEDITKVEIYSEEELKESAGGSAGG [r6_586_TrROS_Hall]”, the “folding stability dG unfold” value was 2.95 ± 0.17 kcal/mol in data set [1], 3.28 ± 0.15 kcal/mol in data set [2] and 3.12 ± 0.16 kcal/mol in data set [3].

As to “SAGGSAGGMIKITITVPPGVSPEFVREKIAPLGVEVLSVEPLPDGTHRVTIEIPPEITKNPELLSAGGSAGG [r6_470_JUSTAS]”, the “folding stability dG unfold” value in data set [1] is 1.68 ± 0.051 kcal/mol; in data set [2], 1.18 ± 0.023 kcal/mol; in data set [3], 1.42 ± 0.044 kcal/mol.

On to “SAGGSAGGMIREIEVKVSPEFPSVEEVVEELKAKGYEVKRIEEDPETDEVIVYVVKKVPEEEHHSAGGSAGG [r6_604_JUSTAS]”, for which the entries for the “folding stability dG unfold” value in data set [1], in data set [2] and in data set [3] were 1.05 ± 0.068 kcal/mol, 1.04 ± 0.17 kcal/mol and 1.08 ± 0.12 kcal/mol, respectively.

On to “SAGGSAGGMIVTTTFLPGNLKVVNVTTTYETTDPSGTTTSTTTTSTTIEYIPPVPVDINNPLLISAGGSAGG [r6_920_JUSTAS]”, for which the results for the “folding stability dG unfold” value in data set [1], in data set [2] and in data set [3] were 1.41 ± 0.071 kcal/mol, 1.24 ± 0.038 kcal/mol and 1.41 ± 0.14 kcal/mol, respectively.

As to “SAGGSAGGMIYADNPEEFKKVVKELLKKHPKNKPVFAVLTGSNSKYVIYLSGDKLEKVLAFPVPSAGGSAGG [r6_288_TrMRF]”, the “folding stability dG unfold” value in data set [1] is 0.961 ± 0.028 kcal/mol; in data set [2], 1.62 ± 0.051 kcal/mol; in data set [3] it was 1.38 ± 0.052 kcal/mol.

In the case of “SAGGSAGGMKATFHPGPGRFPLGDKEYEVDLIYVTVTLPNGVPRVFVLTPDEVEELLPDLELEGSAGGSAGG [r6_561_TrMRF]”, the results for the “folding stability dG unfold” value in data set [1], in data set [2] and in data set [3] were 0.338 ± 0.07 kcal/mol, 1.04 ± 0.071 kcal/mol and 0.794 ± 0.098 kcal/mol, respectively.

As to “SAGGSAGGMKEGETRTITFWANVKPGDLEKIANHMMKFGWPIKKVDIKRHPENGMVRVSITIRKSAGGSAGG [r6_514_TrROS]”, the “folding stability dG unfold” value in data set [1] was determined as 2.21 ± 0.025 kcal/mol; in data set [2], 2.56 ± 0.045 kcal/mol; in data set [3], 2.43 ± 0.052 kcal/mol.

For “SAGGSAGGMKEVIEAALKDGSKEFYAPGFSPDKVYDVKITVYPGEGKVEIEVEGKRFTVSPEDLSAGGSAGG [r6_749_TrMRF]”, the “folding stability dG unfold” value was determined as 1.48 ± 0.14 kcal/mol in data set [1], 0.765 ± 0.18 kcal/mol in data set [2] and 1.11 ± 0.23 kcal/mol in data set [3].

Regarding “SAGGSAGGMKITKIESVEPNPENGMVSLEMKIENGASILIHYNPDNGKVTIMVFKPNEIEPIELSAGGSAGG [r6_796_TrROS]”, the “folding stability dG unfold” value came to 1.26 ± 0.092 kcal/mol in data set [1], 1.91 ± 0.072 kcal/mol in data set [2] and 1.76 ± 0.089 kcal/mol in data set [3].

Turning to “SAGGSAGGMKITVEEDPATNRLTITIEVDGHTVTIVYDKDNPNKITVTVSPNMTKDEILKALKSSAGGSAGG [r6_195_TrROS_Hall]”, the results for the “folding stability dG unfold” value in data set [1], in data set [2] and in data set [3] were 1.67 ± 0.052 kcal/mol, 2.43 ± 0.034 kcal/mol and 2.17 ± 0.095 kcal/mol, respectively.

“SAGGSAGGMKKYKMTITFKTPDGTPVKEKTIYFNSEEEAKKAAEEIKKKELEPDTPVTVSKEPDSAGGSAGG [r6_286_JUSTAS]”: the figures for the “folding stability dG unfold” value in data set [1], in data set [2] and in data set [3] were 0.425 ± 0.05 kcal/mol, 1.13 ± 0.071 kcal/mol and 0.898 ± 0.069 kcal/mol, respectively.

The values are drawn from the supplement of paper PMC12764529.
